According to patent US20240317847A1 (Bayer, published 2024):

T1: human IL2Ra (human, UniProt P01589 22-240, limits assumed)
T1 construct: bought protein, coated on the plate; also called hIL2RA; IL-2 receptor alpha
T1 sequence (looked up): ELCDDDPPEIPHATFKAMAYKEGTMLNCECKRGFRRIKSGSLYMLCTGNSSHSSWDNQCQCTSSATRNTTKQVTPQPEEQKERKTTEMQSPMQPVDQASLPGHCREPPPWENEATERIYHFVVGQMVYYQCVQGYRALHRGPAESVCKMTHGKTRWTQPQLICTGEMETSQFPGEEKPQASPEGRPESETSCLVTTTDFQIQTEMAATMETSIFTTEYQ

T2: human IL-11 (human, UniProt P20809 22-199)
T2 sequence: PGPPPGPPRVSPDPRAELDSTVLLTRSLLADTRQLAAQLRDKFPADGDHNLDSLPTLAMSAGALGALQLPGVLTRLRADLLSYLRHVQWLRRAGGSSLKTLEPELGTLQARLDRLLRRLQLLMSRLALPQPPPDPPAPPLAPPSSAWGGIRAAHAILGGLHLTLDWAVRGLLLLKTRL

T3: murine IL-11 (mouse, UniProt P47873 22-199)
T3 sequence: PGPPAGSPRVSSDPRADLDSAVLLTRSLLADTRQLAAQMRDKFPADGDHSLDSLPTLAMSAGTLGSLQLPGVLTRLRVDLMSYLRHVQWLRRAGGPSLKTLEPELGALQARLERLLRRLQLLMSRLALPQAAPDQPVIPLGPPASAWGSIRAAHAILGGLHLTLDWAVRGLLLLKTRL


Key:
[1] = target: T1, human IL2Ra; experiment: IL2Ra direct binding ELISA, signal ratio to isotype control
Experimental: IL2RA (Peprotech, Germany, #200-02RC) was coated at 1 or 0 μg/ml (buffer only control) in 30 μl coating buffer (Candor, #113500) per well on a 384 well microtiter plate (Maxisorb, Nunc, #460518) over night at 4-8° C. After two washes with 50 μl/well washing buffer (PBS+0.05% Tween, pH 7.4), the plates were incubated for two hours at room temperature with 50 μl/well SmartBlock (Candor, #113500). After blocking, the plates were washed three times with washing buffer. Then, a dilution series of the respective antibody (1E-7 [M] down to 2E-13 [M]) in PBS+0.05% Tween, 10% SmartBlock were added in 30 μl to the microtiter plate and incubated for 90 min at room temperature. After three additional washes, 30 μl anti mouse IgG HRP-conjugated antibody (Biotechne, HAF007), diluted 1:1000 in PBS+0.05% Tween (pH 7.4), were added per well and incubated for one hour. After three additional washes, a mixture of Amplex red (Invitrogen, #12222, 10 mM stock solution in DMSO) 1:1000 diluted in PBS and H2O2 (30%, Merck, #107209)) diluted 1:10000 in PBS were added as substrate with 30 μl per well and incubated for 20 min in the dark. Relative fluorescence was measured with a microtiter plate reader at 535/590 nm.
Next, the 42 antibodies were subjected to an IL2Ra binding ELISA as described in Example 20.

[2] = target: T2, human IL-11; experiment: cell-based or functional assay
[3] = target: T3, murine IL-11; experiment: cell-based or functional assay

Binder	hIL2RA ELISA Binding: Ratio to Isotpye [1]	RGA Efficacy (%) [2]	RGA IC50 [2]	RGA Efficacy (%) [3]	RGA IC50 [3]
TPP-26307 (antibody, V domains shown) VH: EVQLLESGGGLVQPGGSLRLSCAASGFTFSSYGMHWVRQAPGKGLEWVSVISYDGSYKYYADSVKGRFTISRDNSKNTLYLQMNSLRAEDTAVYYCAAGVPDYWGQGTLVTVSS VL: QSVLTQPPSASGTPGQRVTISCTGSSSNIGAGYDVHWYQQLPGTAPKLLIYSNNERPSGVPDRFSGSKSGTSASLAISGLRSEDEADYYCAAWDISLNGPVFGGGTKLTVL	176 ratio	52.7%	5.3 nM	92.3%	1.9 nM
TPP-26308 (antibody, V domains shown) VH: EVQLLESGGGLVQPGGSLRLSCAASGFTFSSYGMHWVRQAPGKGLEWVSVISYDGSYKYYADSVKGRFTISRDNSKNTLYLQMNSLRAEDTAVYYCAAGVPDYWGQGTLVTVSS VL: QSVLTQPPSASGTPGQRVTISCTGSSSNIGAGYDVHWYQQLPGTAPKLLIYSNNERPSGVPDRFSGSKSGTSASLAISGLRSEDEADYYCAAWDVSLNGPVFGGGTKLTVL	188 ratio	63.6%	5.9 nM	91.6%	1.3 nM
TPP-26314 (antibody, V domains shown) VH: EVQLLESGGGLVQPGGSLRLSCAASGFTFSSYGMHWVRQAPGKGLEWVSVISYDGSYKYYADSVKGRFTISRDNSKNTLYLQMNSLRAEDTAVYYCAAGVPDYWGQGTLVTVSS VL: QSVLTQPPSASGTPGQRVTISCTGSSSNIGAGYDVHWYQQLPGTAPKLLIYSNNERPSGVPDRFSGSKSGTSASLAISGLRSEDEADYYCAAWDWSLNGPVFGGGTKLTVL	455 ratio	69.3%	1.1 nM	94.4%	0.8 nM
TPP-26309 (antibody, V domains shown) VH: EVQLLESGGGLVQPGGSLRLSCAASGFTFSSYGMHWVRQAPGKGLEWVSVISYDGSYKYYADSVKGRFTISRDNSKNTLYLQMNSLRAEDTAVYYCAAGVPDYWGQGTLVTVSS VL: QSVLTQPPSASGTPGQRVTISCTGSSSNIGAGYDVHWYQQLPGTAPKLLIYSNNERPSGVPDRFSGSKSGTSASLAISGLRSEDEADYYCAAWDFSLNGPVFGGGTKLTVL	234 ratio	63.9%	1.5 nM	92.2%	0.94 nM
TPP-26310 (antibody, V domains shown) VH: EVQLLESGGGLVQPGGSLRLSCAASGFTFSSYGMHWVRQAPGKGLEWVSVISYDGSYKYYADSVKGRFTISRDNSKNTLYLQMNSLRAEDTAVYYCAAGVPDYWGQGTLVTVSS VL: QSVLTQPPSASGTPGQRVTISCTGSSSNIGAGYDVHWYQQLPGTAPKLLIYSNNERPWGVPDRFSGSKSGTSASLAISGLRSEDEADYYCAAWDDSLNGPVFGGGTKLTVL	231 ratio	59.5%	4.5 nM	94.3%	1.1 nM
TPP-26313 (antibody, V domains shown) VH: EVQLLESGGGLVQPGGSLRLSCAASGFTFSSYGMHWVRQAPGKGLEWVSVISYDGSYKYYADSVKGRFTISRDNSKNTLYLQMNSLRAEDTAVYYCAAGVPDYWGQGTLVTVSS VL: QSVLTQPPSASGTPGQRVTISCTGSSSNIGAYYDVHWYQQLPGTAPKLLIYSNNERPSGVPDRFSGSKSGTSASLAISGLRSEDEADYYCAAWDDSLNGPVFGGGTKLTVL	195 ratio	76.1%	1.7 nM	96.2%	0.66 nM
TPP-26315 (antibody, V domains shown) VH: EVQLLESGGGLVQPGGSLRLSCAASGFTFSSYGMHWVRQAPGKGLEWVSVISYDGSYKYYADSVKGRFTISRDNSKNTLYLQMNSLRAEDTAVYYCAAGVPDYWGQGTLVTVSS VL: QSVLTQPPSASGTPGQRVTISCTGSSSNIGAHYDVHWYQQLPGTAPKLLIYSNNERPSGVPDRFSGSKSGTSASLAISGLRSEDEADYYCAAWDDSLNGPVFGGGTKLTVL	205 ratio	68.3%	1.7 nM	91.5%	1.5 nM
TPP-26311 (antibody, V domains shown) VH: EVQLLESGGGLVQPGGSLRLSCAASGFTFSSYGMHWVRQAPGKGLEWVSVISYDGSYKYYADSVKGRFTISRDNSKNTLYLQMNSLRAEDTAVYYCAAGVPDYWGQGTLVTVSS VL: QSVLTQPPSASGTPGQRVTISCTGSSSNIGAGYDHHWYQQLPGTAPKLLIYSNNERPSGVPDRFSGSKSGTSASLAISGLRSEDEADYYCAAWDDSLNGPVFGGGTKLTVL	292 ratio	38.1%	1.9 nM	86.2%	2.2 nM

The next lines start with the values.

hIL2RA ELISA Binding: Ratio to Isotpye [1]	RGA Efficacy (%) [2]	RGA IC50 [2]	RGA Efficacy (%) [3]	RGA IC50 [3]	Binder
235 ratio	48.6%	7.4 nM	91.1%	1.5 nM	TPP-26319 (antibody, V domains shown) VH: EVQLLESGGGLVQPGGSLRLSCAASGFTFSSYGMHWVRQAPGKGLEWVSVISYDGSYKYYADSVKGRFTISRDNSKNTLYLQMNSLRAEDTAVYYCAAGVPDYWGQGTLVTVSS VL: QSVLTQPPSASGTPGQRVTISCTGSSSNIGAGYDVHWYQQLPGTAPKLLIYSNNEKPSGVPDRFSGSKSGTSASLAISGLRSEDEADYYCAAWDDSLNGPVFGGGTKLTVL
267 ratio	45.9%	2.4 nM	82.3%	4.7 nM	TPP-26318 (antibody, V domains shown) VH: EVQLLESGGGLVQPGGSLRLSCAASGFTFSSYGMHWVRQAPGKGLEWVSVISYDGSYKYYADSVKGRFTISRDNSKNTLYLQMNSLRAEDTAVYYCAAGVPDYWGQGTLVTVSS VL: QSVLTQPPSASGTPGQRVTISCTGSSSNIGAGYFVHWYQQLPGTAPKLLIYSNNERPSGVPDRFSGSKSGTSASLAISGLRSEDEADYYCAAWDDSLNGPVFGGGTKLTVL
31 ratio	69.9%	0.99 nM	93.2%	1.2 nM	TPP-26317 (antibody, V domains shown) VH: EVQLLESGGGLVQPGGSLRLSCAASGFTFSSYGMHWVRQAPGKGLEWVSVISYDGSYKYYADSVKGRFTISRDNSKNTLYLQMNSLRAEDTAVYYCAAGVPDYWGQGTLVTVSS VL: QSVLTQPPSASGTPGQRVTISCTGSSSNIGAEYDVHWYQQLPGTAPKLLIYSNNERPSGVPDRFSGSKSGTSASLAISGLRSEDEADYYCAAWDDSLNGPVFGGGTKLTVL
221 ratio	69.4%	1.6 nM	90.4%	1 nM	TPP-26316 (antibody, V domains shown) VH: EVQLLESGGGLVQPGGSLRLSCAASGFTFSSYGMHWVRQAPGKGLEWVSVISYDGSYKYYADSVKGRFTISRDNSKNTLYLQMNSLRAEDTAVYYCAAGVPDYWGQGTLVTVSS VL: QSVLTQPPSASGTPGQRVTISCTGSSSNIGAGYDVHWYQQLPGTAPKLLIYSNNERPSGVPDRFSGSKSGTSASLAISGLRSEDEADYYCAAWDMSLNGPVFGGGTKLTVL
